{"source": "paper PMC9403545", "about": "“Structure based design of effective HtpG-derived vaccine antigens against M. tuberculosis” (Frontiers in Molecular Biosciences, 2022)", "biological_target": "HtpGMtb_C (C-terminal domain of HtpGMtb, wild type) (M. tuberculosis H37Rv)", "assay": "SEC-MALS"}
{"substance": "HtpGMtb_C (C-terminal domain of HtpGMtb, wild type) (domain or fragment)", "values": [{"measurement": "stoichiometry N", "result": 2}]}
